Assay results reported in the supplement of paper PMC6757056.
± gives the standard deviation of the averaged measurements.

B1: library; a variant is named by its letters at N, in order (parent)
chain: GCUGUCACCGAGAAACUGUGAAGUAUAUCUUAAACCUGGGCACUUAAAAGAUAUAUGGAGUUAGUAGUGCAACCUGCUCGGUCUGAUGAGUCCNNNNNNGGACGAAACAGC

Legend:
cyclic di-GMP [1] = variants of: B1; experiment: normalized RNA/DNA level without ligand (relative to sTRSVctl = 100) (log10 (% of sTRSVctl)); HEK293T; ligand: cyclic di-GMP (c-di-GMP-II aptamer); higher = less ribozyme self-cleavage, higher mRNA level; details: reporter: mCherry (pCS4076), ligand present: no
Procedure, shortened: (§1)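 Library plasmids encoding reporter-linked ribozyme switches (mCherry, or eGFP for some folinic acid experiments) were transfected into HEK293T at 4 µg per 6-well well. Ligand, when used, was added 1 h before transfection. Total RNA was extracted with EDTA 72 h later, then reverse-transcribed, amplified, barcoded and sequenced. RNA level was RNA reads over DNA reads, divided by a spiked-in non-cleaving control (or the top 25 sequences), ×100, log10; only sequences with ≥100 DNA reads were kept.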

cyclic di-GMP [2] = variants of: B1; experiment: normalized RNA/DNA level with ligand (relative to sTRSVctl = 100) (log10 (% of sTRSVctl)); HEK293T; ligand: cyclic di-GMP (c-di-GMP-II aptamer); ligand concentration (+) RNA-Seq: 1 mM; higher = less ribozyme self-cleavage, higher mRNA level; details: reporter: mCherry (pCS4076), ligand present: yes
Procedure, shortened: as §1

| Variant | normalized RNA/DNA level without ligand (log10) (cyclic di-GMP [1]) | normalized RNA/DNA level with ligand (log10) (cyclic di-GMP [2]) |
| --- | --- | --- |
| GCUGUCACCGAGAAACUGUGAAGUAUAUCUUAAACCUGGGCACUUAAAAGAUAUAUGGAGUUAGUAGUGCAACCUGCUCGGUCUGAUGAGUCCGACCCGGGACGAAACAGC [GACCCG] | 1.7824 ± 0.00091 | 1.86 ± 0.11 |
| GCUGUCACCGAGAAACUGUGAAGUAUAUCUUAAACCUGGGCACUUAAAAGAUAUAUGGAGUUAGUAGUGCAACCUGCUCGGUCUGAUGAGUCCUGUGUGGGACGAAACAGC [UGUGUG] | 1.69 ± 0.053 | 1.86 ± 0.056 |
| GCUGUCACCGAGAAACUGUGAAGUAUAUCUUAAACCUGGGCACUUAAAAGAUAUAUGGAGUUAGUAGUGCAACCUGCUCGGUCUGAUGAGUCCUUCGGUGGACGAAACAGC [UUCGGU] | 1.75 ± 0.029 | 1.87 ± 0.056 |
| GCUGUCACCGAGAAACUGUGAAGUAUAUCUUAAACCUGGGCACUUAAAAGAUAUAUGGAGUUAGUAGUGCAACCUGCUCGGUCUGAUGAGUCCUGGCUGGGACGAAACAGC [UGGCUG] | 1.836 ± 0.013 | 1.9 ± 0.095 |
| GCUGUCACCGAGAAACUGUGAAGUAUAUCUUAAACCUGGGCACUUAAAAGAUAUAUGGAGUUAGUAGUGCAACCUGCUCGGUCUGAUGAGUCCCGGUUCGGACGAAACAGC [CGGUUC] | 1.55 ± 0.028 | 1.75 ± 0.069 |
| GCUGUCACCGAGAAACUGUGAAGUAUAUCUUAAACCUGGGCACUUAAAAGAUAUAUGGAGUUAGUAGUGCAACCUGCUCGGUCUGAUGAGUCCUCUUGCGGACGAAACAGC [UCUUGC] | 1.752 ± 0.0056 | 1.88 ± 0.11 |
| GCUGUCACCGAGAAACUGUGAAGUAUAUCUUAAACCUGGGCACUUAAAAGAUAUAUGGAGUUAGUAGUGCAACCUGCUCGGUCUGAUGAGUCCACCGCAGGACGAAACAGC [ACCGCA] | 1.667 ± 0.015 | 1.8 ± 0.11 |
| GCUGUCACCGAGAAACUGUGAAGUAUAUCUUAAACCUGGGCACUUAAAAGAUAUAUGGAGUUAGUAGUGCAACCUGCUCGGUCUGAUGAGUCCGUAUCGGGACGAAACAGC [GUAUCG] | 1.63 ± 0.043 | 1.81 ± 0.098 |
| GCUGUCACCGAGAAACUGUGAAGUAUAUCUUAAACCUGGGCACUUAAAAGAUAUAUGGAGUUAGUAGUGCAACCUGCUCGGUCUGAUGAGUCCUAACAUGGACGAAACAGC [UAACAU] | 1.62 ± 0.019 | 1.76 ± 0.08 |
| GCUGUCACCGAGAAACUGUGAAGUAUAUCUUAAACCUGGGCACUUAAAAGAUAUAUGGAGUUAGUAGUGCAACCUGCUCGGUCUGAUGAGUCCCAUCCUGGACGAAACAGC [CAUCCU] | 1.6 ± 0.03 | 1.77 ± 0.1 |
| GCUGUCACCGAGAAACUGUGAAGUAUAUCUUAAACCUGGGCACUUAAAAGAUAUAUGGAGUUAGUAGUGCAACCUGCUCGGUCUGAUGAGUCCGCCCAUGGACGAAACAGC [GCCCAU] | 1.67 ± 0.036 | 1.85 ± 0.15 |
| GCUGUCACCGAGAAACUGUGAAGUAUAUCUUAAACCUGGGCACUUAAAAGAUAUAUGGAGUUAGUAGUGCAACCUGCUCGGUCUGAUGAGUCCGUGCAAGGACGAAACAGC [GUGCAA] | 1.64 ± 0.046 | 1.77 ± 0.084 |
| GCUGUCACCGAGAAACUGUGAAGUAUAUCUUAAACCUGGGCACUUAAAAGAUAUAUGGAGUUAGUAGUGCAACCUGCUCGGUCUGAUGAGUCCACGGUGGGACGAAACAGC [ACGGUG] | 1.6002 ± 0.00028 | 1.74 ± 0.1 |
| GCUGUCACCGAGAAACUGUGAAGUAUAUCUUAAACCUGGGCACUUAAAAGAUAUAUGGAGUUAGUAGUGCAACCUGCUCGGUCUGAUGAGUCCUUGAGCGGACGAAACAGC [UUGAGC] | 1.73 ± 0.025 | 1.86 ± 0.14 |
| GCUGUCACCGAGAAACUGUGAAGUAUAUCUUAAACCUGGGCACUUAAAAGAUAUAUGGAGUUAGUAGUGCAACCUGCUCGGUCUGAUGAGUCCGAUUCCGGACGAAACAGC [GAUUCC] | 1.8 ± 0.097 | 1.87 ± 0.14 |
| GCUGUCACCGAGAAACUGUGAAGUAUAUCUUAAACCUGGGCACUUAAAAGAUAUAUGGAGUUAGUAGUGCAACCUGCUCGGUCUGAUGAGUCCAACCGAGGACGAAACAGC [AACCGA] | 1.5 ± 0.1 | 1.61 ± 0.089 |
| GCUGUCACCGAGAAACUGUGAAGUAUAUCUUAAACCUGGGCACUUAAAAGAUAUAUGGAGUUAGUAGUGCAACCUGCUCGGUCUGAUGAGUCCCAGGUGGGACGAAACAGC [CAGGUG] | 1.62 ± 0.056 | 1.76 ± 0.084 |
| GCUGUCACCGAGAAACUGUGAAGUAUAUCUUAAACCUGGGCACUUAAAAGAUAUAUGGAGUUAGUAGUGCAACCUGCUCGGUCUGAUGAGUCCUCUAACGGACGAAACAGC [UCUAAC] | 1.6887 ± 0.0016 | 1.83 ± 0.13 |
| GCUGUCACCGAGAAACUGUGAAGUAUAUCUUAAACCUGGGCACUUAAAAGAUAUAUGGAGUUAGUAGUGCAACCUGCUCGGUCUGAUGAGUCCUACUGGGGACGAAACAGC [UACUGG] | 1.731 ± 0.015 | 1.85 ± 0.12 |
| GCUGUCACCGAGAAACUGUGAAGUAUAUCUUAAACCUGGGCACUUAAAAGAUAUAUGGAGUUAGUAGUGCAACCUGCUCGGUCUGAUGAGUCCACUACCGGACGAAACAGC [ACUACC] | 1.69 ± 0.04 | 1.86 ± 0.097 |
| GCUGUCACCGAGAAACUGUGAAGUAUAUCUUAAACCUGGGCACUUAAAAGAUAUAUGGAGUUAGUAGUGCAACCUGCUCGGUCUGAUGAGUCCUAGUACGGACGAAACAGC [UAGUAC] | 1.68 ± 0.037 | 1.8 ± 0.12 |
| GCUGUCACCGAGAAACUGUGAAGUAUAUCUUAAACCUGGGCACUUAAAAGAUAUAUGGAGUUAGUAGUGCAACCUGCUCGGUCUGAUGAGUCCGCCAUCGGACGAAACAGC [GCCAUC] | 1.564 ± 0.0079 | 1.77 ± 0.074 |
| GCUGUCACCGAGAAACUGUGAAGUAUAUCUUAAACCUGGGCACUUAAAAGAUAUAUGGAGUUAGUAGUGCAACCUGCUCGGUCUGAUGAGUCCGGUACGGGACGAAACAGC [GGUACG] | 1.661 ± 0.0037 | 1.821 ± 0.013 |
| GCUGUCACCGAGAAACUGUGAAGUAUAUCUUAAACCUGGGCACUUAAAAGAUAUAUGGAGUUAGUAGUGCAACCUGCUCGGUCUGAUGAGUCCGCUAACGGACGAAACAGC [GCUAAC] | 1.49 ± 0.023 | 1.7 ± 0.15 |
| GCUGUCACCGAGAAACUGUGAAGUAUAUCUUAAACCUGGGCACUUAAAAGAUAUAUGGAGUUAGUAGUGCAACCUGCUCGGUCUGAUGAGUCCCGAAGCGGACGAAACAGC [CGAAGC] | 1.7 ± 0.06 | 1.81 ± 0.054 |
| GCUGUCACCGAGAAACUGUGAAGUAUAUCUUAAACCUGGGCACUUAAAAGAUAUAUGGAGUUAGUAGUGCAACCUGCUCGGUCUGAUGAGUCCAAUCAUGGACGAAACAGC [AAUCAU] | 1.64 ± 0.02 | 1.78 ± 0.093 |
